Assay results published in the supplement of paper PMC10724198.
± gives the standard deviation of the averaged measurements.

The sequences below were run on Saccharomyces cerevisiae (assay: protein stability index of tFT-peptide fusion (C-terminal peptide) (PSI (0-1 scale)); higher = more stable (slower turnover)). Settings: genetic background: wild type; temperature: 30 C.
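Note: PSI is a weighted mean of sequencing reads over stability bins, variants kept only with over 10 reads, mCherry proximal and sfGFP distal, peptide attached via GGGS linker.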

Row | Sequence | protein stability index
1 | WYLRSFVVSTLQ | 0.533 ± 0.065
2 | AILGYFSLVEPP | 0.542 ± 0.013
3 | PPINPTEPPITI | 0.696 ± 0.092
4 | GAILQVEAITHN | 0.657 ± 0.068
5 | SSPPFPLSLPLY | 0.682 ± 0.0017
6 | LPERASQARGRP | 0.694 ± 0.17
7 | RWGGVVRGCSGG | 0.687 ± 0.036
8 | SWPDVCLTSPLS | 0.731 ± 0.042
9 | TPAYTETNGLST | 0.73 ± 0.042
10 | APRRSPGWGPEG | 0.731 ± 0.083
11 | DRWGGDWMERGG | 0.749 ± 0.05
12 | PSISSTSPLPRP | 0.633 ± 0.039
13 | SRVSRGEWGVGI | 0.659 ± 0.023
14 | SHVARFMDEFCM | 0.79 ± 0.038
15 | TSKHLTQRKESK | 0.659 ± 0.0082
16 | ITRATPILSYKK | 0.677 ± 0.09
17 | GEDADLVPILLG | 0.707 ± 0.044
18 | ASCLSPPSPFPR | 0.653 ± 0.013
19 | GVVGGWRGAGWR | 0.736 ± 0.064
20 | VWFSFGCGFFGR | 0.659 ± 0.061
21 | HRCQRGLIARPR | 0.665 ± 0.016
22 | PPPPPPVSPAAL | 0.69 ± 0.018
23 | RWREGWGGFSLG | 0.665 ± 0.025
24 | GGCGNVGVGVSV | 0.694 ± 0.012
25 | VFNSFPLRLFGL | 0.693 ± 0.023

Row | Sequence | protein stability index
26 | PLPPLPPPLSPP | 0.732 ± 0.067
27 | CKTYPTKALVVE | 0.693 ± 0.0097
28 | TRFCDFTSSVTT | 0.711 ± 0.041
29 | TCVLYSSGFIYF | 0.665 ± 0.065
30 | AWEETISVIGVM | 0.711 ± 0.048
31 | CGLSYSISVNMR | 0.627 ± 0.02
32 | SNTSRIQGGWLK | 0.699 ± 0.18
33 | LTIEFSARLGNA | 0.663 ± 0.03
34 | KNFGHQGDVCRR | 0.734 ± 0.037
35 | GGPPSPPFFDAV | 0.741 ± 0.081
36 | PGSFDLSDLAFA | 0.707 ± 0.073
37 | FLRGSSKSISAR | 0.677 ± 0.061
38 | KWQRIKNSPNRK | 0.749 ± 0.059
39 | VGVGGGSVASCV | 0.671 ± 0.018
40 | GLAAGGAVMPPL | 0.7188 ± 0.0064
41 | GYKLSIQGYNRK | 0.675 ± 0.014
42 | DLGQVLSEASAS | 0.742 ± 0.034
43 | CPPSPFPPPLPR | 0.767 ± 0.094
44 | VFLLFFFPCSSR | 0.528 ± 0.013
45 | KKEKEKRRDRWR | 0.661 ± 0.014
46 | LWRRPASSLLPI | 0.701 ± 0.018
47 | NKNGGDLCLGSS | 0.652 ± 0.049
48 | PLRMFRGGISWR | 0.734 ± 0.037
49 | GKYEALGRFSPG | 0.71 ± 0.015
50 | FFSLVHVLFYGF | 0.54037 ± 0.00016

Row | Sequence | protein stability index
51 | NPPPSPALLSRP | 0.809 ± 0.06
52 | GIMPVRENCGVF | 0.6422 ± 0.0048
53 | EESKQKKKNEEE | 0.676 ± 0.041
54 | EVWMGIRSLSVV | 0.634 ± 0.096
55 | HLAHVCYEVPTY | 0.568 ± 0.04
56 | RRDIIMTKKTLH | 0.658 ± 0.069
57 | VARGCNSVYGYA | 0.653 ± 0.012
58 | CSLEREKLQEQQ | 0.689 ± 0.022
59 | VWGWGAWGGCGG | 0.719 ± 0.067
60 | PLPLPPPFPPLS | 0.59 ± 0.043
61 | PCYSFSSSPPRL | 0.693 ± 0.016
62 | LLSPPPHPPPLI | 0.6648 ± 0.0038
63 | GWRACGRGLVGK | 0.712 ± 0.011
64 | GGLACTLAAFYL | 0.733 ± 0.047
65 | VRSCGTAGKGVT | 0.615 ± 0.029
66 | RYYKKQNWKIGL | 0.663 ± 0.13
67 | GGGGGGGGYLGA | 0.715 ± 0.027
68 | LRCRLFIWDGVK | 0.809 ± 0.038
69 | YRDQAGTGSWRM | 0.692 ± 0.023
70 | RFLMGYEVNCAV | 0.548 ± 0.015
71 | LRSQDFKGHLRT | 0.6606 ± 0.0029
72 | IKKKKKKESRSS | 0.693 ± 0.065
73 | VLRRADLGYPRV | 0.663 ± 0.048
